From paper PMC11756078, “Effects of genetic ablation and pharmacological inhibition of HuR on gene expression, iron metabolism, and hormone levels” (BMC Biology, 2025)
Each block holds one compound with its values, some of them ahead of it.

Legend:
[1] = system: mCherry-HuR (human (HeLa HuR KO cells; HuR species implied)?); test: RP-CONA (on-bead RNA pull-down, confocal imaging); conditions: Anisotropy: phosphate buffer pH 7.5, 25 mM MgCl (so in the source), 250 mM NaCl, 0.1% Tween 20, 5 mM DTT, temperature not stated, RP-CONA: cell extract on …
[2] = system: HuR (ELAV-like protein 1), recombinant (human); test: fluorescence anisotropy; conditions: Anisotropy: phosphate buffer pH 7.5, 25 mM MgCl (so in the source), 250 mM NaCl, 0.1% Tween 20, 5 mM DTT, temperature not stated; RP-CONA: cell extract on …
[3] = target: HuR (Recombinant Human Elav-like protein 1, ELAVL1/HuR) (Homo sapiens, UniProt Q15717); test: fluorescence anisotropy, displacement of pri-miR-7-1 CTL 6-FAM RNA from purified recombinant HuR; RP-CONA in HeLa extracts gave IC50 […]; type: binding
Sequence of HuR (Recombinant Human Elav-like protein 1, ELAVL1/HuR) (Q15717 2-326): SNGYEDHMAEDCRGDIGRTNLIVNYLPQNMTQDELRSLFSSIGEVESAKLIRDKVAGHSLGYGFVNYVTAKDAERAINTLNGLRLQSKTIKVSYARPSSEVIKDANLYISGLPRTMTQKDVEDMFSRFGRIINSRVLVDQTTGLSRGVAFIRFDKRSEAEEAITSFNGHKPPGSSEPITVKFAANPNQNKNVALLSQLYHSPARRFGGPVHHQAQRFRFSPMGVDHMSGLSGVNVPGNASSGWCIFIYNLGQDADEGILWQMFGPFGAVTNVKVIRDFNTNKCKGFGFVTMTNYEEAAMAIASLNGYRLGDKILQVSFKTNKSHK

Compound: pri-miR-7 CTL (pri-miR-7-6-FAM), RP-CONA
binding signal ([1]; 20 uM Eltrombopag): 80 % inhibition
IC50 ([1]; IC50 is of Eltrombopag (0-50 uM) inhibiting the complex, not HuR affinity): 5.9 µM

Compound: pri-miR-7-1-6-FAM CTL, anisotropy
IC50 [2]: 19 µM

IC50 [3]: 19 µM
Compound: CC1=NN(c2ccc(C)c(C)c2)C(=O)/C1=N\Nc1cccc(-c2cccc(C(=O)O)c2)c1O [E20, Eltrombopag]
